Patent US6994974B1, “Intracellular amyloid-beta binding (ERAB) polypeptide-related assays” (The trustees of Columbia University in the city of New York, priority 1997, dated 2006)

Experiments:
[1] = target: T1, TrcHis-ERAB polypeptide (Homo sapiens, UniProt Q99714); experiment: Binding of ^125I-amyloid-beta peptide (1–40) to TrcHis-ERAB polypeptide adsorbed to microtiter wells; settings: unlabelled competitor at 10 μM; tracer 100 nM; FIG. 2E
T1 construct: made in house; host or cells: E. coli
T1 sequence (Q99714 1-261): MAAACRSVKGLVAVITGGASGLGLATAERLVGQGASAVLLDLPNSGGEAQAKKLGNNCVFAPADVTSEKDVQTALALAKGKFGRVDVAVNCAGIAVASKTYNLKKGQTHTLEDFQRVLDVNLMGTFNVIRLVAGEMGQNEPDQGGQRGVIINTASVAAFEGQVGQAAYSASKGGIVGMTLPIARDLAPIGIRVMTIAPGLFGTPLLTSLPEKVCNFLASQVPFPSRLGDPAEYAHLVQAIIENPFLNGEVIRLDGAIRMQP
Procedure: FIGS. 2A, 2B, 2C, 2D, 2E, 2F, and 2G. […] FIG. 2A. SDS-PAGE (12%; reduced) followed by immunoblotting of TrcHis-ERAB polypeptide (FIG. 2A, lane 1; 2 μg) and TrcHis-chloramphenicol acetyltransferase (CAT; FIG. 2A, lane 2; 2 μg) fusion proteins using anti-ERAB polypeptide IgG (3 μg/ml). […] FIGS. 2B and 2C. […] Binding was analyzed by nonlinear least squares analysis using the method of Klotz and Hunston (60). FIG. 2E. […] FIGS. 2F and 2G. […] 0 indicates wells coated with albumin alone. […] Control TrcHis-CAT construct (Invitrogen) was also used to transform E. coli and the fusion protein was purified as above. Antibody to ERAB polypeptide was prepared by immunizing rabbits with ERAB polypeptide-derived peptides, corresponding to residues 100–116 and 133–147, conjugated to keyhole limpet hemocyanin. […] (for ERAB polypeptide) or overnight at 4° C. […] Unbound radioactivity was removed by washing wells five times with ice cold phosphate-buffered saline containing Tween 20 (0.05%), and bound radioactivity was eluted by incubation with Nonidet P-40 (1%).

[2] = tested on: ERAB polypeptide in neuroblastoma cells; experiment: Cellular distribution of ERAB polypeptide in neuroblastoma cells by immunofluorescence; type: cell-based, human; settings: peptide added to neuroblastoma cells; amyloid-beta peptide (1–42) 1 μM; FIGS. 4F, 4G
Procedure: FIGS. 4A, 4B, 4C, 4D, 4E, 4F, 4G, 4H, and 4I. Expression of ERAB polypeptide in cultured cells: localization to the endoplasmic reticulum and change in distribution following addition of amyloid-beta peptide. FIG. 4A. Immunoblotting of ERAB polypeptide in human neuroblastoma SK-N-SH (FIG. 4A, lane 1) and HeLa (FIG. 4A, lane 2) cells. Cell extracts (50 μg protein/lane) were subjected to immunoblotting using anti-ERAB polypeptide IgG (3 μg/ml). FIGS. 4B, 4C, and 4D. […] Scale bar=25 μm. FIG. 4E. Subcellular fractionation of ERAB nucleic acid-transfected human neuroblastoma cells. Transfected cells (5×10^8) were pelletted and fractionated in a series of sucrose steps (38%, 30% and 20%) by ultracentrifugation (100,000 for 3 hrs). […] Neuroblastoma cells were incubated in buffer alone or in the presence of amyloid-beta peptide (1–42; 1 μM), and the distribution of ERAB polypeptide was determined by immunofluorescence with anti-ERAB polypeptide IgG. […]
These observations also posed an apparent paradox, for, how could amyloid-beta peptide, most of which is extracellular, interact with a polypeptide associated with endoplasmic reticulum? […] Second, it was determined that ERAB polypeptide became associated with amyloid-beta peptide, and that amyloid-beta peptide-induced effects on ERAB polypeptide were not likely mediated by an indirect mechanism. […]

Row | Competition for ^125I-amyloid-beta peptide (1–40) binding to TrcHis-ERAB polypeptide [1] | Substance | Change in cellular distribution of ERAB polypeptide [2]
1 | had no effect | Arg-Gly-Asp-Ser (RGDS) | 
2 | blocked binding | amyloid-beta peptide (1–20): synthetic amyloid-beta peptide (1–20) | 
3 |  | amyloid-beta peptide (1–42): exogenous amyloid-beta peptide (1–42) | marked change in the cellular localization
4 | had no effect | amyloid-beta peptide (25–35): synthetic amyloid-beta peptide (25–35) (GSNKGAIIGLM) | 
